Target: T1, P-selectin glycoprotein ligand 1 (PSGL-1) expressed by cells (naive human T cells, HL-60 cells, PBMCs) (human, UniProt Q14242 42-412)
T1 construct: also called SELPLG; CD162
T1 sequence: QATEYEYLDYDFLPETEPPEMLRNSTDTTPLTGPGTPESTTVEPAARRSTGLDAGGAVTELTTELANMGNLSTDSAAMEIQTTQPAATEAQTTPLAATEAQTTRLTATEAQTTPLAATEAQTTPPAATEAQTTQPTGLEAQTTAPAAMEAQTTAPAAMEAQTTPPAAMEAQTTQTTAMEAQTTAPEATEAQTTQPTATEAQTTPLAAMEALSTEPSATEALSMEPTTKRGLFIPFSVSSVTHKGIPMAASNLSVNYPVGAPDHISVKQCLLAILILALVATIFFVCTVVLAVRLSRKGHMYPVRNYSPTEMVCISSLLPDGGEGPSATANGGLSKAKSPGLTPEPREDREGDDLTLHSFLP
Test: CAPTIREC/TRICEPS ligand-receptor capture on naive human T cells, LC-MS/MS; enrichment against the anti-CD28 antibody control
Procedure: An overview of the […]™ procedure is outlined in FIG. 1. Briefly, the VISTA-Fc fusion protein and the anti-CD28 antibody were separately coupled with TRICEPS™ Naïve human T cells were isolated from commercially available primary human T cells. The surface glycoproteins of the naïve T cells were selectively oxidized. Ligand binding and receptor coupling to the cell surface of the oxidized naïve T cells was performed. The reacted T cells were then lysed and the resulting lysate was affinity purified for the ligand-receptor protein complexes. The purified proteins where then cleaved by trypsin digestion, thereby releasing receptor peptides. The resulting receptor peptides were analyzed by liquid chromatography-tandem mass spectrometry (LC-MS/MS). […]
The resulting receptor peptides were analyzed by LC-MS/MS on a Thermo LTQ Orbitrap XL spectrometer fitted with an electrospray ion source. The samples were measured in data dependent acquisition mode in a 120 min gradient using a 10 cm C18 packed column. Six individual samples in the […]™ dataset were analyzed with a statistical ANOVA model. […]
Peptide identifications were filtered to an FDR of <=1% and quantified using an MS1-based label-free approach. For the MS1 quantification, the nonlinear DYNAMICS Progenesis QI for proteomics software was used, set to consider all unique peptides. […]

B1: VISTA-Fc fusion protein (Fc fusion)
chain: FKVATPYSLYVCPEGQNVTLTCRLLGPVDKGHDVTFYKTWYRSSRGEVQTCSERRPIRNLTFQDLHLHHGGHQAANTSHDLAQRHGLESASDHHGNFSITMRNLTLLDSGLYCCLVVEIRHHHSEHRVHGAMELQVQTGKDAPSNCVVYPSSSQDSENIRSVECPPCPAPPVAGPSVFLFPPKPKDTLMISRTPEVTCVVVDVSHEDPEVKFNWYVDGVEVHNAKTKPREEQYNSTYRVVSVLTVLHQDWLNGKEYKCKVSNKGLPSSIEKTISKAKGQPREPQVYTLPPSREEMTKNQVSLTCLVKGFYPSDIAVEWESNGQPENNYKTTPPVLDSDGSFFLYSKLTVDKSRWQQGNVFSCSVMHEALHNHYTQKSLSLSPGK
- Log2 FC: 2.33 log2 fold change
